Experiments:
[1] = molecular target: HLA-A*02:01 (Homo sapiens, UniProt P04439, D140Y/D185E/D98H/E176V/E277Q/G131W/G231S/I119V/I121R/I166T/I218V/L300P/L318F/N151K/N90K/P208A/P217A/Q86G/Q94H/R138H/R169H/T345S); experiment: MHC binding assay (UV-ligand exchange, β2m ELISA, peptide exchange yield); settings: MHC class I binding score; binding to HLA-A*02:01 ranged by peptide exchange yield (UV-ligand exchange, β2m ELISA)
Outline: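 Binding is expressed as peptide exchange yield: stabilized MHC complexes were quantified by β2m ELISA, with a 450 nm TMB read-out on streptavidin-coated plates. Complexes came from UV-ligand exchange, where UV irradiation cleaves a photolabile peptide so the candidate peptide can load.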

[2] = test system: CD8+ T cells; experiment: In vitro T-cell priming (immunogenicity) with aAPCs loaded with peptide/MHC and anti-CD28, pMHC multimer readout; format: cell-based, human; settings: for Wells positive [%]: in vitro immunogenicity, HLA-A*02 restricted peptides, positive wells among evaluable; for donors / wells: in vitro immunogenicity of HLA class I peptides; for donors: percentage of positive donors; for wells: percentage of positive wells
From the text: In order to obtain information regarding the immunogenicity of the TUMAPs of the present invention, the inventors performed investigations using an in vitro T-cell priming assay based on repeated stimulations of CD8+ T cells with artificial antigen presenting cells (aAPCs) loaded with peptide/MHC complexes and anti-CD28 antibody.
In order to perform in vitro stimulations by artificial antigen presenting cells loaded with peptide-MHC complex (pMHC) and anti-CD28 antibody, the inventors first isolated CD8+ T cells from fresh HLA-A*02 leukapheresis products via positive selection using CD8 microbeads (Miltenyi Biotec, Bergisch-Gladbach, Germany) of healthy donors obtained from the University clinics Mannheim, Germany, after informed consent.
PBMCs and isolated CD8+ lymphocytes were incubated in T-cell medium (TCM) until use consisting of RPMI-Glutamax (Invitrogen, Karlsruhe, Germany) supplemented with 10% heat inactivated human AB serum (PAN-Biotech, Aidenbach, Germany), 100 U/ml Penicillin/100 μg/ml Streptomycin (Cambrex, Cologne, Germany), 1 mM sodium pyruvate (CC Pro, Oberdorla, Germany), 20 μg/ml Gentamycin (Cambrex). 2.5 ng/ml IL-7 (PromoCell, Heidelberg, Germany) and 10 U/ml IL-2 (Novartis Pharma, Nürnberg, Germany) were also added to the TCM at this step.
Generation of pMHC/anti-CD28 coated beads, T-cell stimulations and readout was performed in a highly defined in vitro system using four different pMHC molecules per stimulation condition and 8 different pMHC molecules per readout condition.
The purified co-stimulatory mouse IgG2a anti human CD28 Ab 9.3 (Jung et al., 1987) was chemically biotinylated using Sulfo-N-hydroxysuccinimidobiotin as recommended by the manufacturer (Perbio, Bonn, Germany). Beads used were 5.6 μm diameter streptavidin coated polystyrene particles (Bangs Laboratories, Illinois, USA).
pMHC used for positive and negative control stimulations were A*0201/MLA-001 (peptide […] (SEQ ID NO. 664) from modified Melan-A/MART-1) and A*0201/DDX5-001 ([…] from DDX5, SEQ ID NO. 665), respectively.
800.000 beads/200 μl were coated in 96-well plates in the presence of 4×12.5 ng different biotin-pMHC, washed and 600 ng biotin anti-CD28 were added subsequently in a volume of 200 μl. Stimulations were initiated in 96-well plates by co-incubating 1×10^6 CD8+ T cells with 2×10^5 washed coated beads in 200 μl TCM supplemented with 5 ng/ml IL-12 (PromoCell) for 3 days at 37° C. Half of the medium was then exchanged by fresh TCM supplemented with 80 U/ml IL-2 and incubating was continued for 4 days at 37° C. This stimulation cycle was performed for a total of three times. For the pMHC multimer readout using 8 different pMHC molecules per condition, a two-dimensional combinatorial coding approach was used as previously described (Andersen et al., 2012) with minor modifications encompassing coupling to 5 different fluorochromes. Finally, multimeric analyses were performed by staining the cells with Live/dead near IR dye (Invitrogen, Karlsruhe, Germany), CD8-FITC antibody clone SK1 (BD, Heidelberg, Germany) and fluorescent pMHC multimers. For analysis, a BD LSRII SORP cytometer equipped with appropriate lasers and filters was used. Peptide specific cells were calculated as percentage of total CD8+ cells. Evaluation of multimeric analysis was done using the FlowJo software (Tree Star, Oregon, USA). In vitro priming of specific multimer+CD8+ lymphocytes was detected by comparing to negative control stimulations.
Exemplary flow cytometry results after TUMAP-specific multimer staining for two peptides of the invention are shown in FIG. 3 together with corresponding negative controls.

Substance	Peptide exchange [1]	Wells positive [%] [2]	donors [2]	wells [2]
2 (SLLEADPFL; listed as Homo sapiens) [compound 2]	″+++″ (≧50% = +++)	″+″ (<20% = +)	–	–
3 (SLASKLTTL; listed as Homo sapiens) [compound 3]	″++++″ (≧75% = ++++)	″+″ (<20% = +)	–	–
5 (HLTEVYPEL; listed as Homo sapiens) [compound 5]	″+++″ (≧50% = +++)	″+++″ (50%-69% = +++)	–	–
7 (SLVGLLLYL; listed as Homo sapiens) [compound 7]	″++++″ (≧75% = ++++)	″++″ (20%-49% = ++)	–	–
8 (FTLGNVVGMYL; listed as Homo sapiens) [compound 8]	″++++″ (≧75% = ++++)	″+″ (<20% = +)	–	–
11 (KIFEMLEGV; listed as Homo sapiens) [compound 11]	″+++″ (≧50% = +++)	″+″ (<20% = +)	–	–
17 (GLLPGDRLVSV; listed as Homo sapiens) [compound 17]	″+++″ (≧50% = +++)	″++″ (20%-49% = ++)	–	–
19 (FMVDNEAIYDI; listed as Homo sapiens) [compound 19]	″++++″ (≧75% = ++++)	″++″ (20%-49% = ++)	–	–
36 (YVLEDLEVTV; listed as Homo sapiens) [compound 36]	″++″ (≧20% = ++)	″+″ (<20% = +)	–	–
38 (FLLEDDIHVS; listed as Homo sapiens) [compound 38]	″+++″ (≧50% = +++)	″+″ (<20% = +)	–	–
40 (TLLVKVFSV; listed as Homo sapiens) [compound 40]	″+++″ (≧50% = +++)	″++″ (20%-49% = ++)	–	–
48 (ALAELYEDEV; listed as Homo sapiens) [compound 48]	″+++″ (≧50% = +++)	″+″ (<20% = +)	–	–
49 (YLPAVFEEV; listed as Homo sapiens) [compound 49]	″+++″ (≧50% = +++)	″++″ (20%-49% = ++)	–	–
56 (KLYEGIPVLL; listed as Homo sapiens) [compound 56]	″++++″ (≧75% = ++++)	″+″ (<20% = +)	–	–
60 (SLTIDGIYYV; listed as Homo sapiens) [compound 60]	″++++″ (≧75% = ++++)	″++++″ (> = 70% = ++++)	–	–
61 (FLQGYQLHL; listed as Homo sapiens) [compound 61]	″++++″ (≧75% = ++++)	″++″ (20%-49% = ++)	–	–
79 (SLFIGEKAVLL; listed as Homo sapiens) [compound 79]	″+++″ (≧50% = +++)	″+″ (<20% = +)	–	–
108 (ALFPGVALLLA; listed as Homo sapiens) [compound 108]	″++++″ (≧75% = ++++)	″++″ (20%-49% = ++)	–	–
113 (GLLPTPLFGV; listed as Homo sapiens) [compound 113]	″+++″ (≧50% = +++)	″+″ (<20% = +)	–	–
118 (KLIDNNINV; listed as Homo sapiens) [compound 118]	″+++″ (≧50% = +++)	″+″ (<20% = +)	–	–
141 (YLDFSNNRL; listed as Homo sapiens) [compound 141]	″++″ (≧20% = ++)	″+″ (<20% = +)	–	–
143 (LLLDITPEI; listed as Homo sapiens) [compound 143]	″++++″ (≧75% = ++++)	″+″ (<20% = +)	–	–
150 (RLWEEGEELEL; listed as Homo sapiens) [compound 150]	″+++″ (≧50% = +++)	″+″ (<20% = +)	–	–

Substance	Peptide exchange [1]	Wells positive [%] [2]	donors [2]	wells [2]
152 (ILFEDIFDV; listed as Homo sapiens) [compound 152]	″+++″ (≧50% = +++)	″++″ (20%-49% = ++)	–	–
157 (SLNDEVPEV; listed as Homo sapiens) [compound 157]	″++″ (≧20% = ++)	″+++″ (50%-69% = +++)	–	–
166 (YLNHLEPPV; listed as Homo sapiens) [compound 166]	″+++″ (≧50% = +++)	″++++″ (> = 70% = ++++)	–	–
191 (LLQEGQALEYV; listed as Homo sapiens) [compound 191]	″++″ (≧20% = ++)	″+++″ (50%-69% = +++)	–	–
198 (KTINKVPTV; listed as Homo sapiens) [compound 198]	″+++″ (≧50% = +++)	″++″ (20%-49% = ++)	–	–
199 (ALQDVPLSSV; listed as Homo sapiens) [compound 199]	″+++″ (≧50% = +++)	″+″ (<20% = +)	–	–
613 (RLLPPGAVVAV; listed as Homo sapiens) [compound 613]	″+++″ (≧50% = +++)	–	–	–
614 (LLLPDQPPYHL; listed as Homo sapiens) [compound 614]	″+++″ (≧50% = +++)	–	–	–
615 (VLPPDTDPA; listed as Homo sapiens) [compound 615]	″++″ (≧20% = ++)	–	–	–
616 (VLIDEVESL; listed as Homo sapiens) [compound 616]	″+++″ (≧50% = +++)	–	–	–
617 (ALMYESEKVGV; listed as Homo sapiens) [compound 617]	″+++″ (≧50% = +++)	–	–	–
618 (VLFDSESIGIYV; listed as Homo sapiens) [compound 618]	″+++″ (≧50% = +++)	–	–	–
619 (ALQDRVPLA; listed as Homo sapiens) [compound 619]	″+++″ (≧50% = +++)	–	–	–
620 (KLLNKIYEA; listed as Homo sapiens) [compound 620]	″++++″ (≧75% = ++++)	–	–	–
621 (VLMDRLPSLL; listed as Homo sapiens) [compound 621]	″++++″ (≧75% = ++++)	–	–	–
622 (RLLGEEVVRVLQA; listed as Homo sapiens) [compound 622]	″+++″ (≧50% = +++)	–	–	–
623 (YLVEDIQHI; listed as Homo sapiens) [compound 623]	″+++″ (≧50% = +++)	–	–	–
635 (SLDSTLHAV; listed as Homo sapiens) [compound 635]	″+++″ (≧50% = +++)	–	–	–
648 (LLWGNAIFL; listed as Homo sapiens) [compound 648]	–	–	+++ (50%-69% = +++)	–
652 (TLWYRAPEV; listed as Homo sapiens) [compound 652]	–	–	++++ (> = 70% = ++++)	+++ (50%-69% = +++)
659 (ILFPDIIARA; listed as Homo sapiens) [compound 659]	–	–	+++ (50%-69% = +++)	+ (<20% = +)
662 (KIQEILTQV; listed as Homo sapiens) [compound 662]	–	–	+++ (50%-69% = +++)	+ (<20% = +)
663 (KIQEMQHFL; listed as Homo sapiens) [compound 663]	–	–	+++ (50%-69% = +++)	+ (<20% = +)

Source: patent publication US20170037111A1, “Novel peptides and combination of peptides for use in immunotherapy against ovarian cancer and other cancers” (immatics biotechnologies GmbH, priority 2015, published 2017)
